# Test results taken from US7691567B2, “Methods and compositions relating to fortilin, an anti-apoptotic molecule, and modulators of fortilin” (Board of Regents, the University of Texas System, priority 2000, dated 2010).
# How the values were obtained:
# [1] = system: MCL1; type: cell-based
# [2] = target: FLAG-MCL1 (Homo sapiens, UniProt Q07820); type: binding; settings: COS cell lysate, anti-HA immunoprecipitation
# [3] = target: p53 (Homo sapiens, UniProt P04637); test: Coimmunoprecipitation of fortilin and p53 from U2OS cell lysates; type: binding; set-up: endogenous in cells; host or cells: U2OS
# Sequence of p53 (P04637 whole entry, species assumed): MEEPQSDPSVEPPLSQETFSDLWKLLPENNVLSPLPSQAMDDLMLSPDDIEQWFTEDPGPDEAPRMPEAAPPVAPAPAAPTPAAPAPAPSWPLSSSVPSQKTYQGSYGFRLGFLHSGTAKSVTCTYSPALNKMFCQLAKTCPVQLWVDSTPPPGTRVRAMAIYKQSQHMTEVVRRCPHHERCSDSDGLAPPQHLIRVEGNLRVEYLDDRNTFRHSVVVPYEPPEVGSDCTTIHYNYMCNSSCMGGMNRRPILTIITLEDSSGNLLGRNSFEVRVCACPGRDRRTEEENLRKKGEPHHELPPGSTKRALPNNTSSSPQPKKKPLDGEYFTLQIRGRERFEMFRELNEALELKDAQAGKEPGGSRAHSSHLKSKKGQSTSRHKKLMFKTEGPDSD
# Description: As in example 2, studies were initiated to determine whether p53 and Fortilin specifically interact in U2OS cells. Six million U2OS cells stably expressing either HA-fortilin or HA-only were suspended in lysis-binding-wash buffer (50 mM HEPES, pH7.5, 70 mM KCl, 0.5 mM ATP, 5 mM MgSO4, 1 mM DTT, 0.1% NP40, 2 mg/mL BSA, Aprotinin, PMSF, MG132 and protease inhibitor cocktail). Cells were then mechanically disrupted by nitrogen excavitation method. Cleared total cell lysates were incubated with […] anti-HA antibody (3F10, Roche), followed by the incubation with anti-mouse IgG conjugated to magnetic beads (Dynal USA) and extensive wash with lysis-binding-wash buffer.
# Further experiments were conducted to determine in vivo immunoprecipitation of fortilin by p53. Twenty million U2OS cells were suspended in lysis-binding buffer (50 mM HEPES, pH7.5, 70 mM KCl, 0.5 mM ATP, 5 mM MgSO4, 1 mM DTT, 0.001% NP40, 2 mg/mL BSA, Aprotinin, PMSF, MG132 and protease inhibitor cocktail). Cells were then mechanically disrupted by nitrogen excavitation method. Cleared total cell lysates were divided equally into two eppendorf tubes. To the first tube, anti-p53 antibody (DO-1, […]) was added, while […] control monoclonal antibody was added to the second tube. After incubation, formed complexes were precipitated by goat anti-mouse IgG conjugated to magnetic beads (Dynal USA), followed by extensive wash. […]
# Sequence of FLAG-MCL1 (Q07820 whole entry): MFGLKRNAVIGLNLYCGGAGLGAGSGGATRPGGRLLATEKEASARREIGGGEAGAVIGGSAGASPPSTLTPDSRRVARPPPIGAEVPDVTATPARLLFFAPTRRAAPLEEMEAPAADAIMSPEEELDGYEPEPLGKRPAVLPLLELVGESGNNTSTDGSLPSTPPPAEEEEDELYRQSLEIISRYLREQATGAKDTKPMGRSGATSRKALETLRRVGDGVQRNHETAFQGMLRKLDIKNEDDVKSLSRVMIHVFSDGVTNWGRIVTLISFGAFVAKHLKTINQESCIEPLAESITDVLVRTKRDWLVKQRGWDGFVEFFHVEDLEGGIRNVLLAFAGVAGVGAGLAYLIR
substance,measurement,setting,value
Fortilin-HA: influenza hemagglutinin-tagged Fortilin,intracellular localization of MCL1,[1],MCL1 was consistently localized in the nucleus just as it was in the cells transfected with empty vector
same,co-precipitation of FLAG-MCL1 in vivo,[2],FLAG-MCL1 was co-precipitated only in the presence of immunoprecipitated Fortilin-HA
same,co-precipitation of fortilin and p53 in vivo,[3],the presence of fortilin was necessary and sufficient for the co-precipitation of p53
